The labels stand for the following.
B1: Ib_S2_P5E.1_K5.1_C5.1_H5.1_A5.1_F5.1_[T8C]_[T9C]_T5.1 (ssRNA)
RNA: UUUGAUUAAUAUGAUAUCGUUCUUUCUUGUAUUACCAUUCUUUCUCGAUAUCAUAUUAAUCUUU
B2: Ib_S2_P4E.1_K4.1_C4.1_H4.1_[A4C]_A4.1_[T7C]_F4.1_T4.1 (ssRNA)
RNA: UUUGAUUAAUAUGAUAUCGUUCUUUCUUGUCUACUAUUCUUUCUCGAUAUCAUAUUAAUCUUU
B3: Ib_S2_P4E.1_K4.1_C4.1_H4.1_A4.1_[T5A]_[A6C]_F4.1_T4.1 (ssRNA)
RNA: B2 RNA with C31A, U32A, A33C, C34U
B4: Ic_S2_P4E.1_K4.1_C4.1_H4.1_A4.1_[A6T]_[T7C]_F4.1_T4.1 (ssRNA)
RNA: B2 RNA with C31A, A33U
B5: Ib_S2_P4E.1_K4.1_C4.1_H4.1_A4.1_[T5G]_[A6T]_F4.1_T4.1 (ssRNA)
RNA: B2 RNA with C31A, U32G, A33U, C34U
B6: Ib_S2_P4E.1_K4.1_C4.1_H4.1_A4.1_[T5C]_[A6T]_F4.1_T4.1 (ssRNA)
RNA: B2 RNA with C31A, U32C, A33U, C34U
B7: Ia_S2_P4E.1_K4.1_C4.1_H4.1_A4.1_[A6G]_F4.1_T4.1 (ssRNA)
RNA: B2 RNA with C31A, A33G, C34U
B8: Ib_S2_P4E.1_K4.1_C4.1_H4.1_A4.1_[A6C]_[T7G]_F4.1_T4.1 (ssRNA)
RNA: B2 RNA with C31A, A33C, C34G
B9: Ia_S2_P4E.1_K4.1_C4.1_H4.1_A4.1_[A6C]_F4.1_T4.1 (ssRNA)
RNA: B2 RNA with C31A, A33C, C34U
B10: Ic_S2_P4E.1_K4.1_C4.1_H4.1_A4.1_[A6G]_[T7C]_F4.1_T4.1 (ssRNA)
RNA: B2 RNA with C31A, A33G
B11: Ic_S2_P4E.1_K4.1_C4.1_H4.1_A4.1_[A6C]_[T7C]_F4.1_T4.1 (ssRNA)
RNA: B2 RNA with C31A, A33C
B12: Ib_S2_P4E.1_K4.1_C4.1_H4.1_A4.1_[T5C]_[A6C]_F4.1_T4.1 (ssRNA)
RNA: B2 RNA with C31A, U32C, A33C, C34U
B13: Ib_S2_P4E.1_K4.1_C4.1_H4.1_A4.1_[T5C]_[T7G]_F4.1_T4.1 (ssRNA)
RNA: B2 RNA with C31A, U32C, C34G
B14: Ib_S2_P4E.1_K4.1_C4.1_H4.1_[A4T]_A4.1_[T7G]_F4.1_T4.1 (ssRNA)
RNA: B2 RNA with C31U, C34G
B15: Ic_S2_P4E.1_K4.1_C4.1_H4.1_A4.1_[A6T]_[T7A]_F4.1_T4.1 (ssRNA)
RNA: B2 RNA with C31A, A33U, C34A
B16: Ic_S2_P4E.1_K4.1_C4.1_H4.1_A4.1_[A6C]_[T7A]_F4.1_T4.1 (ssRNA)
RNA: B2 RNA with C31A, A33C, C34A
B17: Ic_S2_P4E.1_K4.1_C4.1_H4.1_A4.1_[T5A]_[A6T]_F4.1_T4.1 (ssRNA)
RNA: B2 RNA with C31A, U32A, A33U, C34U
B18: Ic_S2_P4E.1_K4.1_C4.1_H4.1_A4.1_[A6T]_[T7G]_F4.1_T4.1 (ssRNA)
RNA: B2 RNA with C31A, A33U, C34G
B19: Ib_S2_P4E.1_K4.1_C4.1_H4.1_A4.1_[T5C]_[T7C]_F4.1_T4.1 (ssRNA)
RNA: B2 RNA with C31A, U32C
B20: Ib_S2_P4E.1_K4.1_C4.1_H4.1_[A4C]_A4.1_[T7A]_F4.1_T4.1 (ssRNA)
RNA: B2 RNA with C34A
B21: Ib_S2_P4E.1_K4.1_C4.1_H4.1_[A4T]_A4.1_[T7C]_F4.1_T4.1 (ssRNA)
RNA: B2 RNA with C31U
B22: Ib_S2_P4E.1_K4.1_C4.1_H4.1_A4.1_[T5A]_[T7C]_F4.1_T4.1 (ssRNA)
RNA: B2 RNA with C31A, U32A
B23: Ib_S2_P4E.1_K4.1_C4.1_H4.1_A4.1_[T5A]_[T7A]_F4.1_T4.1 (ssRNA)
RNA: B2 RNA with C31A, U32A, C34A

Changes are numbered by the printed parent chain. Names may count otherwise.

The target in this data set is T1, PUF4 RNA-binding domain (Saccharomyces cerevisiae, UniProt P25339 537-888).
T1 sequence: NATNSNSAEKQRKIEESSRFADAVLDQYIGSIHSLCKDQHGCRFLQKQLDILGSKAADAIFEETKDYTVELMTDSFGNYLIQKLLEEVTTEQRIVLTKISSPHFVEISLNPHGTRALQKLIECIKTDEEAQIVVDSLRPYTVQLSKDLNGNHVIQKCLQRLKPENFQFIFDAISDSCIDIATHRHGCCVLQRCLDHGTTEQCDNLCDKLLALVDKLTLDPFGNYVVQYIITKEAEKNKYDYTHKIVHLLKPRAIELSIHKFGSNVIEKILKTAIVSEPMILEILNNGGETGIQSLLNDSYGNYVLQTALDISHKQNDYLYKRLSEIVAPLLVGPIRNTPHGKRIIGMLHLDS
The data set is described as follows: Mg; RNA-MaP; 20 mM Na-HEPES pH 7.4, 30 mM KOAc, 0.75 mM MgCl2, 0.1% Tween-20, 5% glycerol, 0.1 mg/mL BSA, 2 mM DTT; 25 C; 0.0125-409.6 nM protein. As to conditions: tags: N-His6-TEV cleaved; C-SNAP kept, Cy3B-labelled; label: tethered on chip by stalled RNA polymerase.
By Kd is commonly meant the concentration at which binding is half-saturated. The low end stands for a tighter complex, the high end for a looser complex. Consider B1, for which the affinity, expressed as Kd, was 321 nM.

The molecule B2 returned a Kd of 6.04 nM. B3: the Kd came out at 2.62 nM. Next, B4: 1 nM.

With B5, binding was characterised by a dissociation constant (Kd) of 2.75 nM.

The molecule B6 returned a Kd of 0.795 nM.

With B7, the Kd turned out to be 2.55 nM.

For the molecule B8, binding was put at a Kd of 8.48 nM.

B9 registered an equilibrium dissociation constant (Kd) of 1.21 nM.

In the case of B10, binding was put at a Kd of 2.71 nM. For the molecule B11, the affinity, expressed as Kd, was 1.76 nM. Against the preceding molecule, the Kd is about 1.5-fold lower.

Turning to B12, the Kd was 0.902 nM. Molecule B13 showed a Kd of 0.884 nM. This Kd and that of the molecule before are within 1.5-fold of each other. On to B14, for which the Kd came out at 30.8 nM.

B15 had a Kd of 0.912 nM. B16 registered a Kd of 0.595 nM. Under B17 stands 2.07 nM; under B18, 4.85 nM.

B19 gave a Kd of 0.279 nM. Under B20 stands 16 nM.

Take B21: the Kd stood at 6.89 nM. Under B22 stands 1.21 nM. Under B23 stands 1.83 nM.

The values above are taken from PMC9352680, “A comprehensive thermodynamic model for RNA binding by the Saccharomyces cerevisiae Pumilio protein PUF4”.
